In the supplement of paper PMC12042874:
± gives the uncertainty stated by the source.

experiment: amyloid nucleation score (Sup35N fusion, yeast selection) (log enrichment); library NNK2; higher = more nucleation; inactive = no reads after selection
Procedure, shortened: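 For the nucleation score, DiMSum gave the log enrichment of output over input reads, centred on the mode score of non-aggregating sequences. Psi-negative yeast expressing Sup35N fused to peptides of 20 random codons were induced with 100 μM copper sulfate for 24 hours and grown 7 days at 30°C on medium lacking adenine and uracil. Input and output plasmid inserts were Illumina-sequenced, and sequences with under 100 input reads were excluded.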

| Substance | amyloid nucleation score |
| --- | --- |
| LRTIHYPC | inactive |
| RNRCSSDFGSGRINVDGFNM | inactive |
| YVATVWPLQSKRLSHRLMNG | 0.695 ± 0.43 |
| SYCTR | -0.645 ± 0.56 |
| SFEWKPVFLSRLRPRIRHQV | 5.66 ± 0.066 |
| ILKIAARIYLGLWTVFDWCG | 0.523 ± 0.27 |
| RMRVIISR | -0.881 ± 0.4 |
| SHAIHRCVGWFGVWTGTLFI | 3.69 ± 0.083 |
| GCCPAALFEFT | -1.07 ± 0.78 |
| ISLSLFRNGPIRMAKGSAWM | 6.081 ± 0.036 |
| RTSKGAA | 1.21 ± 0.45 |
| GWCSYTP | 0.832 ± 0.67 |
| RTVYFCQN | -1.5 ± 1.1 |
| LHFGAGLTSSVCPSLYSQ | -0.931 ± 1.1 |
| LVMRMFRERYNLCVSYWLN | inactive |
| TVFYIYMGQDDG | 5.12 ± 0.1 |
| WLYRQFDLSLESYNWMPGIE | 3.95 ± 0.12 |
| GAVRVYNYNYQEVKTLLLVE | -0.425 ± 0.32 |
| LSLVEIFLGMRSLEVFCWVE | -0.709 ± 0.28 |
| SGARPVYFWLLIPLSYKL | 0.285 ± 1 |
| CRAHMCLQFNYWTRVMNTPT | 6.809 ± 0.068 |
| EVVNWSR | -0.367 ± 0.35 |

| Substance | amyloid nucleation score |
| --- | --- |
| FCGFNDPGRD | inactive |
| ILQWEVSWLCKNHT | 0.683 ± 0.35 |
| LLMQVIRPVNLLFRWRELWA | 0.213 ± 0.34 |
| IRALDGHGFSSPWARFGPAG | 0.755 ± 0.4 |
| ENSLVYI | inactive |
| SAWRVCYRTNENCAPFMYVL | -1.22 ± 0.75 |
| FFVLRHA | -0.513 ± 0.32 |
| TDCFQFS | 0.713 ± 0.58 |
| WFMNSNVLHYM | 0.27 ± 0.64 |
| HYKTMFRFVCHFCENGGDGL | 10.18 ± 0.06 |
| KGVCRNMAGGKYANMRYGGV | 5.09 ± 0.051 |
| VNWIKGKGRLPPFHGIDCWW | -0.139 ± 0.63 |
| FSFRLYMEFLWGI | inactive |
| DDRCATSNIHLLLHPLCTYL | 0.754 ± 0.37 |
| RDVWVRGLACLVASSTMHSS | 0.999 ± 0.32 |
| VFLLTLRCCWEFVLCADGP | 1.29 ± 0.36 |
| LTWRYLLYPLDKFGLETWVL | 0.375 ± 0.46 |
| AIRCMEVKRTKSLLLVDSLS | 0.154 ± 0.23 |
| QWGDYIGAASMW | -0.767 ± 0.49 |
| FNNMWYSFKQSLSACSVGRR | inactive |
| GVMSPHVTTFNILCVNNVLC | 8.72 ± 0.07 |
| GLGSRWRCA | 2.01 ± 0.24 |

| Substance | amyloid nucleation score |
| --- | --- |
| KKLYFWINAHNRELTLKTWV | 0.226 ± 0.54 |
| QSNSSRLHSCRGAIVICI | 6.751 ± 0.066 |
| LLACLKGTSGAGRIYAYLMT | -0.096 ± 0.3 |
| MTMMVGRIISTNRVYS | 1.29 ± 0.53 |
| IAGYGVHTLVQCVV | 0.082 ± 1 |
| SYFLYLGLNPVYQWYDSFVV | 1.47 ± 0.14 |
| SNRRKSAGDSFVRWMCCLT | 2.61 ± 0.15 |
| NNRWFRRGLGLSLDWTDCLS | -0.492 ± 1.1 |
| FKFGPMDSIKYMSANFISQC | -0.189 ± 0.64 |
| KFNPRPCSFKYLRV | inactive |
| QYIPMSLNCQLQYGSHAGQE | -0.216 ± 0.49 |
| SLVTLWLGANAR | 0.175 ± 0.26 |
| TIACLEINPHAMSDYMRLCH | -0.842 ± 0.49 |
| TNSDSSTQKVIVMSLNAVVP | 6.11 ± 0.049 |
| MVRIGELSPRCNSFV | 0.075 ± 0.53 |
| VYRDDCFHFLDTSQTGACLT | 0.797 ± 0.4 |
| SLACGNEKRFVMILSHI | 0.641 ± 0.74 |
| RFWMNNSLNLCQLILTR | 0.333 ± 0.61 |
| YPNRFINTCFVRCNISLNNY | 8.485 ± 0.061 |
| QRLYPFYCIGYYITMYVVHC | 2.45 ± 0.13 |
| RFCHTSRGSGGLGRLCQLAL | 0.157 ± 1 |
| GLIGCAMSVVPHEELCVRTC | 1.07 ± 0.29 |

| Substance | amyloid nucleation score |
| --- | --- |
| VDTSYITCITRLSPYIKVVL | -0.477 ± 0.79 |
| SLQFPISVNTYGDESCNSTV | -0.424 ± 1.1 |
| AQDWVARIRWSVRQFYGARC | 2.18 ± 0.14 |
| SVKRHPFRTVKLGVSVLLWV | 1 ± 0.18 |
| YRPRDCISRVTYMRTVIVIL | -0.121 ± 1.1 |
| VRIKCYVKPYFFQKFLHMIG | -1.34 ± 0.53 |
| DLEIPFLKRKG | -0.349 ± 0.6 |
| KVLATMGDIGVVLSVMLVPV | 1.33 ± 0.3 |
| STMSFFSIGKLPEIVVGDSY | -1.24 ± 0.75 |
| PSVKIRFQVAYWLYRSLMMS | 0.877 ± 0.55 |
| QGFYDGQPV | 0.203 ± 0.5 |
| RVLTKYMFMILFSSSFSYVR | 0.154 ± 0.5 |
| GFKYVRSRNSGALYKYSS | -0.962 ± 0.54 |
| LTVLCPANLSYRIVYVLLYK | -0.865 ± 0.41 |
| LWHHIHSDLMTIYFVLDSSG | inactive |
| MMLRLSCSSPQSLVRSSS | -0.181 ± 0.63 |
| VLSENITSLISKCYCFKSHL | 6.021 ± 0.038 |
| LYKSSIA | -2.08 ± 0.49 |
| IVHYVFFWMGGILGNHASFP | -1.31 ± 1.1 |
| TCYLGPWCPIHDTRIRPGWV | 0.698 ± 0.21 |
